Measurements taken from patent publication US20110059082A1 (BIOTEST, published 2011).

B1: humanized B-F5 H37L/L4L (antibody, V domains shown)
VH: EEQLVESGGGLVKPGGSLRLSCAASGFSFSDCRMYWLRQAPGKGLEWIGVISVKSENYGANYAESVRGRFTISRDDSKNTVYLQMNSLKTEDTAVYYCSASYYRYDVGAWFAYWGQGTLVTVSS
VL: DIVLTQSPDSLAVSLGERATINCRASKSVSTSGYSYIYWYQQKPGQPPKLLIYLASILESGVPDRFSGSGSGTDFTLTISSLQAEDVAVYYCQHSRELPWTFGQGTKVEIK
notes: expressed in Sp2/0, purified on protein A; also called H37L/L4L IgG1; hB-F5
B2: humanized B-F5 H37V/L4L (antibody, V domains shown)
VH: EEQLVESGGGLVKPGGSLRLSCAASGFSFSDCRMYWVRQAPGKGLEWIGVISVKSENYGANYAESVRGRFTISRDDSKNTVYLQMNSLKTEDTAVYYCSASYYRYDVGAWFAYWGQGTLVTVSS
VL: DIVLTQSPDSLAVSLGERATINCRASKSVSTSGYSYIYWYQQKPGQPPKLLIYLASILESGVPDRFSGSGSGTDFTLTISSLQAEDVAVYYCQHSRELPWTFGQGTKVEIK
notes: also called hB-F5
B3: humanized B-F5 H37V/L4M (antibody, V domains shown)
VH: EEQLVESGGGLVKPGGSLRLSCAASGFSFSDCRMYWVRQAPGKGLEWIGVISVKSENYGANYAESVRGRFTISRDDSKNTVYLQMNSLKTEDTAVYYCSASYYRYDVGAWFAYWGQGTLVTVSS
VL: DIVMTQSPDSLAVSLGERATINCRASKSVSTSGYSYIYWYQQKPGQPPKLLIYLASILESGVPDRFSGSGSGTDFTLTISSLQAEDVAVYYCQHSRELPWTFGQGTKVEIK
notes: also called hB-F5
B4: humanized B-F5 H37L/L4M IgG1 (BT061) (antibody, V domains shown)
VH: EEQLVESGGGLVKPGGSLRLSCAASGFSFSDCRMYWLRQAPGKGLEWIGVISVKSENYGANYAESVRGRFTISRDDSKNTVYLQMNSLKTEDTAVYYCSASYYRYDVGAWFAYWGQGTLVTVSS
VL: DIVMTQSPDSLAVSLGERATINCRASKSVSTSGYSYIYWYQQKPGQPPKLLIYLASILESGVPDRFSGSGSGTDFTLTISSLQAEDVAVYYCQHSRELPWTFGQGTKVEIK
notes: also called hB-F5; humanised B-F5

Target: T1, soluble CD4 (human, UniProt P01730 26-396, limits assumed)
T1 construct: The assay paragraph says only 'soluble CD4'
Assay: competitive ELISA, inhibition of biotinylated mB-F5 binding to coated soluble CD4, 37 °C 2 hours
Experimental: Culture supernatants of transfectomas producing the four versions of hB-F5 were collected, and concentrated. The different antibodies were purified from culture supernatants by affinity chromatography using protein A Sepharose and assessed for their CD4 binding activity by measuring, by means of competitive ELISA, their inhibitory activities against the binding of biotinylated mB-F5 to soluble CD4 coated on microtiter plates. Incubation, time is 2 hours for 37° C. and overnight for 4° C.

Binder	Relative binding activity (% of mB-F5)
B1	30 % of mB-F5
B2	10 % of mB-F5
B3	10 % of mB-F5
B4	30 % of mB-F5
